Among the data in paper PMC5935684 are percent of particles with a second NCP in the proximity values, retold here.

This assay deals with nucleosome core particle assembled on a 149 bp long 601 DNA sequence (Xenopus laevis). Nature of the assay: cryo-EM micrographs and 2D classification; NCPs on 149 bp 601 DNA at 150 mM NaCl; particles with a second NCP in the proximity counted by 2D classification (Relion).

With “nucleosome core particle assembled on a 149 bp long 601 DNA sequence (complex)”, the percent of particles with a second NCP in the proximity was determined as 20%.
